From article PMC5457438
Changes are numbered by the printed parent chain.

How the values were obtained:
[1] = test system: T1, MaeR D54N D54N (Lacticaseibacillus (Lactobacillus) casei BL23), ORF:6e0afda8; assay: EMSA; details: EMSA: 15 ul of 2.5 mM Tris-HCl pH 7.5, 100 mM NaCl, 25 mM MgCl2, 0.25 mM EDTA, 0.25 mM DTT, 10% glycerol, 1.5 ug salmon sperm DNA, 100 ng DNA, 62-375 ng …
T1 sequence: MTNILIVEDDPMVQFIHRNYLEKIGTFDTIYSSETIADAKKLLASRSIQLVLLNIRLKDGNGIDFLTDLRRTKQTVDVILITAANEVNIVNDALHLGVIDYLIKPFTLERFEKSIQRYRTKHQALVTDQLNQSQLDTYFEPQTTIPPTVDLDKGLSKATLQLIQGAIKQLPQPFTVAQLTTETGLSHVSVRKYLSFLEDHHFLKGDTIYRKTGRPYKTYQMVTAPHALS

[2] = test system: T2, MaeR full length (MaeRFL) (Lacticaseibacillus (Lactobacillus) casei BL23), ORF:6e0afda8; assay: EMSA; details: EMSA: 15 ul of 2.5 mM Tris-HCl pH 7.5, 100 mM NaCl, 25 mM MgCl2, 0.25 mM EDTA, 0.25 mM DTT, 10% glycerol, 1.5 ug salmon sperm DNA, 100 ng DNA, 62-375 ng …
T2 sequence: T1 sequence with N54D

[3] = test system: T3, MaeR D54A D54A (Lacticaseibacillus (Lactobacillus) casei BL23), ORF:6e0afda8; assay: EMSA; details: EMSA: 15 ul of 2.5 mM Tris-HCl pH 7.5, 100 mM NaCl, 25 mM MgCl2, 0.25 mM EDTA, 0.25 mM DTT, 10% glycerol, 1.5 ug salmon sperm DNA, 100 ng DNA, 62-375 ng …
T3 sequence: T1 sequence with N54A

[4] = target: recombinant complete cytoplasmic portion of MaeK (MaeKC) (Lactobacillus casei); assay: SEC; gel filtration chromatography of MaeKC (Superdex200 16/60); single peak

Substance | binding [1] | binding [2] | binding [3] | stoichiometry N [4]
CGTTGATTTGTTGGGTGTAACCGTCTTGTTCTCCATGTTTCCTTACCCCCAATCTTTTGTTACTTACAGCATATTGTAAGCGCTTCATCAGGGGAAGATTATTTAACTTATTAAACCATAAACCCATTTATTTAAGCGATTGTTTTACTATTCACAAGATGGTTTCTCTACTGAACAGGAGTATGATCATGAAAATAAAAGGATGGCGGCTATGGGGCT (double strand) [mae promoter (maeP-maeK intergenic region, 219 bp)] | binds | binds | no binding | 
recombinant complete cytoplasmic portion of MaeK (MaeKC) (domain or fragment) |  |  |  | 2
